Patent US20240092835A1, “NOVEL PEPTIDES CAPABLE OF ALTERING NK CELL ACTIVITY” (Massachusetts Institute of Technology, priority 2022, published 2024)

Experiments:
CD94/NKG2A = CD94/NKG2A (UniProt Q13241); test: SPR steady state, Biacore T200, pMHC single chain trimer immobilized, CD94/NKG2A analyte
CD94/NKG2C = CD94/NKG2C (UniProt Q13241); test: SPR steady state, Biacore T200, pMHC single chain trimer immobilized, CD94/NKG2C analyte

Row | Substance | Kd (CD94/NKG2A) | Kd (CD94/NKG2C)
1 | PISD55-63 peptide-HLA-E complex (single chain trimer) (from UniProt P61769 21-119; P13747 22-297) (peptide-MHC) | 12.1 µM | 16 µM
2 | GTF3C5293-301 peptide-HLA-E complex (single chain trimer) (from UniProt P61769 21-119; P13747 22-297) (peptide-MHC) | 28.1 µM | 92.4 µM

Stronger by Kd (CD94/NKG2A), values ahead:

Row | Kd (CD94/NKG2A) | Kd (CD94/NKG2C) | Substance
3 | 0.8 µM | 1.8 µM | BFAR263-271 peptide-HLA-E complex (single chain trimer) (from UniProt P61769 21-119; P13747 22-297) (peptide-MHC)
4 | 4.1 µM | 15.6 µM | AKAP6388-396 peptide-HLA-E complex (single chain trimer) (from UniProt P61769 21-119; P13747 22-297) (peptide-MHC)
5 | 3.3 µM | 9.8 µM | CREB3L1419-427 peptide-HLA-E complex (single chain trimer) (from UniProt P61769 21-119; P13747 22-297) (peptide-MHC)
